The record followed here is EP2385124A2 (Arbor Vita Corporation, dated 2011).

No end group written: not given here. *: point of attachment. Biotin = O=C1N[C@H]2[C@H](CS[C@H]2CCCCC(=O)*)N1

In assay [1] the target is T1, GST-KIAA0561 PDZ domain fusion protein (UniProt O60307 948-1038).
T1 construct: domain: PDZ domain 1 (of 1); AA numbers count on the GenBank entry; also called K561; not shown: glutathione-S transferase (GST) as encoded by vector pGEX-3X (Pharmacia)
T1 sequence: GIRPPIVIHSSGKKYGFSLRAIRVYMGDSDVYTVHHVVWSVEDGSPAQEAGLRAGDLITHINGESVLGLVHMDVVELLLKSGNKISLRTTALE
The assay can be described thus: A/G plate assay (TABLE 2).

The target in assay [2] is T2, GST-TIAM1 PDZ domain fusion protein (UniProt Q13009 844-931).
T2 construct: domain: PDZ 1 (of 1); AA numbers count on the GenBank entry; also called T-lymphoma invasion and metastasis inducing protein 1; not shown: glutathione-S transferase (GST) as encoded by vector pGEX-3X (Pharmacia)
The assay can be described thus: A/G plate assay (TABLE 2).

Assay [3] deals with T3, GST-AF6 PDZ domain fusion protein (UniProt P55196 1001-1093).
T3 construct: domain: PDZ domain 1 (of 1); AA numbers count on the GenBank entry; also called af-6 protein; not shown: glutathione-S transferase (GST) as encoded by vector pGEX-3X (Pharmacia)
T3 sequence: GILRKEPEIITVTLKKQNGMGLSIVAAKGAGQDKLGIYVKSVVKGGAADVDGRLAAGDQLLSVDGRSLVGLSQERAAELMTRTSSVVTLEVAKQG
The assay can be described thus: A/G plate assay (TABLE 2).

The target in assay [4] is T4, GST-PSD95 PDZ domains 1-3 fusion protein (human, UniProt P78352 58-395).
T4 construct: domain: PDZ domains 1-3 (of 3); AA numbers count on the GenBank entry; not shown: glutathione-S transferase (GST) as encoded by vector pGEX-3X (Pharmacia)
The assay can be described thus: A/G plate assay (TABLE 2).

Assay [5] deals with T4, GST-PSD95 PDZ domains 1-3 fusion protein. The assay can be described thus: G assay, biotinylated peptide titrated on plate-bound GST-PDZ, saturation fit (apparent affinity).
In assay [6] the target is T5, GST-MPP1 PDZ domain fusion protein (UniProt Q00013 67-152).
T5 construct: domain: PDZ domain 1 (of 1); AA numbers count on the GenBank entry; also called 55 Kd erythrocyte membrane protein; not shown: glutathione-S transferase (GST) as encoded by vector pGEX-3X (Pharmacia)
T5 sequence: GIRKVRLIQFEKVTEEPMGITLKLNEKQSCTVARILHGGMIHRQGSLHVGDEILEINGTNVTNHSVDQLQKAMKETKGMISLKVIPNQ
The assay can be described thus: A/G plate assay (TABLE 2).

Assay [7] concerns the target T6, GST-KIAA0303 PDZ domain fusion protein (UniProt O15021 1139-1229).
T6 construct: domain: PDZ domain 1 (of 1); AA numbers count on the GenBank entry; also called K303; not shown: glutathione-S transferase (GST) as encoded by vector pGEX-3X (Pharmacia)
T6 sequence: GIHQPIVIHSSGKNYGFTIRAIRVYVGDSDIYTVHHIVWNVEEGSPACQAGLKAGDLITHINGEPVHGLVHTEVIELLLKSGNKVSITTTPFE
The assay can be described thus: A/G plate assay (TABLE 2).

The target of assay [8] is T7, GST-PTN-4 PDZ domain fusion protein (UniProt P29074 516-604).
T7 construct: domain: PDZ domain 1 (of 1); AA numbers count on the GenBank entry; also called protein-tyrosine phosphatase meg1; not shown: glutathione-S transferase (GST) as encoded by vector pGEX-3X (Pharmacia)
T7 sequence: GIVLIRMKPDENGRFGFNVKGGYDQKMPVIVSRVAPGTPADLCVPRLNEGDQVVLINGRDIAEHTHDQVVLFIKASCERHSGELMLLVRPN
The assay can be described thus: A/G plate assay (TABLE 2).

Assay [9] concerns the target T8, GST-prIL16 PDZ domains 1-2 fusion protein (UniProt Q14005 1111-1324).
T8 construct: domain: PDZ domain 1-2 (of 2); AA numbers count on the GenBank entry; also called putative interleukin 16 precursor; not shown: glutathione-S transferase (GST) as encoded by vector pGEX-3X (Pharmacia)
T8 sequence: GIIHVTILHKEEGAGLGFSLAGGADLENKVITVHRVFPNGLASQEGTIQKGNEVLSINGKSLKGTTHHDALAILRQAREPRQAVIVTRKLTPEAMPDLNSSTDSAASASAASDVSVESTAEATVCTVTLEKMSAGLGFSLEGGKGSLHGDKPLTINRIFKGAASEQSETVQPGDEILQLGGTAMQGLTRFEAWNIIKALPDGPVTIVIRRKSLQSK
The assay can be described thus: A/G plate assay (TABLE 2).

T4 sequence (P78352 other isoform, or with tags, fused parts or gaps): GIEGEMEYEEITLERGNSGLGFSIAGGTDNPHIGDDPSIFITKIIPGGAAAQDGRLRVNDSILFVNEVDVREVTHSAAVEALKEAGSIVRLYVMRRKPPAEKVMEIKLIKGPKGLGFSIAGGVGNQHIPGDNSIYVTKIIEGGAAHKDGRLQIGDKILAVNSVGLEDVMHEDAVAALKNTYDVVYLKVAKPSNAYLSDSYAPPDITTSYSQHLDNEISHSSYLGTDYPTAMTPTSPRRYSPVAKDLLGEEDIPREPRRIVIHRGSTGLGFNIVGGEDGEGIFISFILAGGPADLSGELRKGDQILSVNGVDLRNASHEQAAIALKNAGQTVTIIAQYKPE
T2 sequence (Q13009 other isoform, or with tags, fused parts or gaps): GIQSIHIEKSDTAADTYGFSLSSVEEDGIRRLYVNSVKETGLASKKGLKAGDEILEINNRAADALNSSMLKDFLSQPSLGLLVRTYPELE

As for Biotin-SSKSKSSEESQTFFGLYKL (also called FAS Ligand) [FasL C-terminal PL peptide AA23L-M], the binding result in assay [1] is given as “binds”. Take Biotin-PKQANGGAYQKPTKQEEFYA [CD138 C-terminal PL peptide AA18L]: the binding result in [2] is “binds”.

Take Biotin-TREDIYVNYPTFSRRPKTRV [DNAM-1 C-terminal PL peptide AA22L]: the binding result in assay [3] and in assay [4] was “binds” in each case. As for Biotin-KDSRPSFVGSSSGHTSTTL [CDW128B (IL8RB) C-terminal PL peptide AA29.2L], the binding result in assay [4] is listed as “binds”. Consider Biotin-KDITSDSENSNFRNEIQSLV (also called AAI3L) [CD95 (Fas) C-terminal PL peptide AA13L], for which, in [5], the Kd was 85 µM. As to Biotin-KKGTYLTDETHREVKFTSL [CD46 (Form 1) C-terminal PL peptide AA10L], the binding result in assay [4] was “binds”. On the same count and under the same terms, then Biotin-VTSPNKHLGLVTPHKTELV [CD83 C-terminal PL peptide AA47L], with “binds”.

Turning to Biotin-SSAKSSNKNKKNKDKEYYV [Neurexin C-terminal PL peptide AA38L], the binding result in assay [6] is given as “binds”. Consider Biotin-SVFSIPTLWSPWPPSSSSQL (also called CD3-eta; CD3-η) [CD3n C-terminal PL peptide AA4L], for which the binding result in assay [4] is on record as “binds”. Consider Biotin-ARKANMKGSYSLVEAQKSKV [VCAM1 C-terminal PL peptide AA17L], for which the binding result in assay [6], in assay [2] and in [7] was “binds” each time. On to Biotin-QATSRNGHSARQHVVADTEL [CD34 C-terminal PL peptide AA7L], for which the binding result in assay [4] was “binds”. Still for that read-out and setting: then Biotin-TTNNNPNSAVNIKKIFTDV [KV1.3 C-terminal PL peptide AA33L], with “binds”.

Take Biotin-EVICYIEKPGVETLEDSVF [CDW125 (IL5R) C-terminal PL peptide AA28L]: in assay [8], the binding result was “binds”.

In the case of Biotin-QFMTADETRNLQNVDMKIGV [CD44 C-terminal PL peptide AA9L], the binding result in [6] and in assay [9] was “binds” throughout. As for Biotin-QGDPALQDAGDSSRKEYFI (also called GC) [Glycophorin C C-terminal PL peptide AA37L], the binding result in [6] is “no binding”; in assay [3], “binds”; in assay [4], “binds”.
